According to US20220194987A1:
Positions of bridges follow the written chain, without caps; N, C: chain ends. No end group written: not given here.

Tests used:
[1] = target: human BKα channel ZERO isoform (human) (UniProt Q12791); assay: phagemid display panning, positive selection on HEK293 cells expressing human BKα ZERO; enrichment over the theoretical frequency in the library
[2] = target: human BKα channel ZERO isoform (human) (UniProt Q12791); assay: cell-based or functional assay

Row | fold enrichment of its motifs in the phagemid panning [1] [fold] | suppression of channel openings (patch clamp, HEK293 cells) (fraction of openings suppressed) [2] | probability of opening, combination of pskan1 and pskan4, 10 microM, outside-out patches [2] [fold] | Binder
1 | > 1000 | 0.67 |  | CRRGLVQVC (disulfide 1-9; also: TFA salt) [LS3]
2 |  |  | 1.6 | CPPGRGAVC (disulfide 1-9) [LS4]
3 |  |  | 1.6 | CARGVYRVC (disulfide 1-9) [LS1]
